Results reported in US20100015126A1 (published 2010).

B1: recombinant human HSP60 with N-terminal His-tag (other, UniProt P10809 27-573, looked up, not shown: small tags and cut ends)
chain: AKDVKFGADARALMLQGVDLLADAVAVTMGPKGRTVIIEQSWGSPKVTKDGVTVAKSIDLKDKYKNIGAKLVQDVANNTNEEAGDGTTTATVLARSIAKEGFEKISKGANPVEIRRGVMLAVDAVIAELKKQSKPVTTPEEIAQVATISANGDKEIGNIISDAMKKVGRKGVITVKDGKTLNDELEIIEGMKFDRGYISPYFINTSKGQKCEFQDAYVLLSEKKISSIQSIVPALEIANAHRKPLVIIAEDVDGEALSTLVLNRLKVGLQVVAVKAPGFGDNRKNQLKDMAIATGGAVFGEEGLTLNLEDVQPHDLGKVGEVIVTKDDAMLLKGKGDKAQIEKRIQEIIEQLDVTTSEYEKEKLNERLAKLSDGVAVLKVGGTSDVEVNEKKDRVTDALNATRAAVEEGIVLGGGCALLRCIPALDSLTPANEDQKIGIEIIKRTLKIPAMTIAKNAGVEGSLIVEKIMQSSSEVGYDAMAGDFVNMVEKGIIDPTKVVRTALLDAAGVASLLTTAEVVVTEIPKEEKDPGMGAMGGMGGGMGGGMF
notes: mature; also called His-HSP60
B2: heat-denatured chicken ovalbumin (dOVA standard) (other, UniProt P01012 2-386, looked up)
chain: GSIGAASMEFCFDVFKELKVHHANENIFYCPIAIMSALAMVYLGAKDSTRTQINKVVRFDKLPGFGDSIEAQCGTSVNVHSSLRDILNQITKPNDVYSFSLASRLYAEERYPILPEYLQCVKELYRGGLEPINFQTAADQARELINSWVESQTNGIIRNVLQPSSVDSQTAMVLVNAIVFKGLWEKAFKDEDTQAMPFRVTEQESKPVQMMYQIGLFRVASMASEKMKILELPFASGTMSMLVLLPDEVSGLEQLESIINFEKLTEWTSSNVMEERKIKVYLPRMKMEEKYNLTSVLMAMGITDVFSSSANLSGISSAESLKISQAVHAAHAEINEAGREVVGSAEAGVDAASVSEEFRADHPFLFCIKHIATNAVLFFGRCVSP
notes: also called dOVA std; misfolded hen ovalbumin

Key:
[1] = target: T1, oxidized human plasma low density lipoprotein (oxLDL) with misfolded apolipoprotein B100 (human, UniProt P04114 28-4563); assay: direct ELISA, coated ligand, HSP60 concentration series
T1 construct: also called oxidized LDL

[2] = target: T2, fibrin (immobilized, formed from fibrinogen with factor IIa) (UniProt P02671 36-629; P02675 45-491; P02679 27-437); assay: direct ELISA, fibrin formed in wells, anti-His-tag detection
T2 sequence (looked up) 1: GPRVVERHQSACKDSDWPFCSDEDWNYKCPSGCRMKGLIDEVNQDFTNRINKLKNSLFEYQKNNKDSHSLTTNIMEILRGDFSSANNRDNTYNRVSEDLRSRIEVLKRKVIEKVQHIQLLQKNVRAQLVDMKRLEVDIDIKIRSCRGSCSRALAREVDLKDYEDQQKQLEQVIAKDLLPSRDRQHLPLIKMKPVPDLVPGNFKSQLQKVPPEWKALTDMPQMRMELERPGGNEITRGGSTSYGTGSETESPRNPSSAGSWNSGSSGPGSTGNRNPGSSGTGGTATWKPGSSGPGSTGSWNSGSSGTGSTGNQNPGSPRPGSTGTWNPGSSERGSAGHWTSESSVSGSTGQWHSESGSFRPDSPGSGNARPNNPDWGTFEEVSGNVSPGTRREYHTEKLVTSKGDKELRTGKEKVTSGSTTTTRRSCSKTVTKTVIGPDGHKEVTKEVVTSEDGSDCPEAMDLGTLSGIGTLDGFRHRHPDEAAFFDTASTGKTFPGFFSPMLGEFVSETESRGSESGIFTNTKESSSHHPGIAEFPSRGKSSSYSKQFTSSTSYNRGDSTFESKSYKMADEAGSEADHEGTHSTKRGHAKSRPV
T2 sequence (looked up) 2: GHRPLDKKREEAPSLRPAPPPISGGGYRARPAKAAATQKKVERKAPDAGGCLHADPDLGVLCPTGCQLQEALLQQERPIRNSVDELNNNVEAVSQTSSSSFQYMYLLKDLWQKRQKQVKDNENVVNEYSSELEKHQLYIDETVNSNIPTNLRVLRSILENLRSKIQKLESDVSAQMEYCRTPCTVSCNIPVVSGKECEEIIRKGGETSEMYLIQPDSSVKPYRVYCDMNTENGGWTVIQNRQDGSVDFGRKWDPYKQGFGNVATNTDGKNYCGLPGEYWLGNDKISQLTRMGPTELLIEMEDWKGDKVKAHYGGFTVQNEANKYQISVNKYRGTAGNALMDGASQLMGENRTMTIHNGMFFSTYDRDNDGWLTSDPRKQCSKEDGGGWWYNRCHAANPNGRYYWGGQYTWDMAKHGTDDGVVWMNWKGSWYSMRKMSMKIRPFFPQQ
T2 sequence (looked up) 3: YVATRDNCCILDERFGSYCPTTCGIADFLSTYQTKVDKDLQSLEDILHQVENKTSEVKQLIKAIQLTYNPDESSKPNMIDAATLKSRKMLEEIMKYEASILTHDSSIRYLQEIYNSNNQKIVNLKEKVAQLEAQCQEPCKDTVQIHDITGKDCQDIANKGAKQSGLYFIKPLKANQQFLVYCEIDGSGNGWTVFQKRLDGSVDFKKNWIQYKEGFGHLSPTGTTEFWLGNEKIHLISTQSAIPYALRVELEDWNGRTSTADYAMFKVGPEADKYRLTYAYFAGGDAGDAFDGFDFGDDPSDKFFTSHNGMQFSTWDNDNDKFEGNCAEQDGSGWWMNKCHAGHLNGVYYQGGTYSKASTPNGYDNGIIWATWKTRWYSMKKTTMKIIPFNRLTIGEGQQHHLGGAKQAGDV

[3] = target: T3, synthetic human amyloid-β(1-42) peptide (Aβ42t=0) (human); assay: direct ELISA, coated ligand, anti-His-tag detection
T3 construct: also called Aβ1-42

[4] = target: recombinant human HSP90beta (human, UniProt P08238 1-724); assay: direct ELISA, coated ligand, HSP90 concentration series

T1 sequence (P04114 28-4563 limits assumed): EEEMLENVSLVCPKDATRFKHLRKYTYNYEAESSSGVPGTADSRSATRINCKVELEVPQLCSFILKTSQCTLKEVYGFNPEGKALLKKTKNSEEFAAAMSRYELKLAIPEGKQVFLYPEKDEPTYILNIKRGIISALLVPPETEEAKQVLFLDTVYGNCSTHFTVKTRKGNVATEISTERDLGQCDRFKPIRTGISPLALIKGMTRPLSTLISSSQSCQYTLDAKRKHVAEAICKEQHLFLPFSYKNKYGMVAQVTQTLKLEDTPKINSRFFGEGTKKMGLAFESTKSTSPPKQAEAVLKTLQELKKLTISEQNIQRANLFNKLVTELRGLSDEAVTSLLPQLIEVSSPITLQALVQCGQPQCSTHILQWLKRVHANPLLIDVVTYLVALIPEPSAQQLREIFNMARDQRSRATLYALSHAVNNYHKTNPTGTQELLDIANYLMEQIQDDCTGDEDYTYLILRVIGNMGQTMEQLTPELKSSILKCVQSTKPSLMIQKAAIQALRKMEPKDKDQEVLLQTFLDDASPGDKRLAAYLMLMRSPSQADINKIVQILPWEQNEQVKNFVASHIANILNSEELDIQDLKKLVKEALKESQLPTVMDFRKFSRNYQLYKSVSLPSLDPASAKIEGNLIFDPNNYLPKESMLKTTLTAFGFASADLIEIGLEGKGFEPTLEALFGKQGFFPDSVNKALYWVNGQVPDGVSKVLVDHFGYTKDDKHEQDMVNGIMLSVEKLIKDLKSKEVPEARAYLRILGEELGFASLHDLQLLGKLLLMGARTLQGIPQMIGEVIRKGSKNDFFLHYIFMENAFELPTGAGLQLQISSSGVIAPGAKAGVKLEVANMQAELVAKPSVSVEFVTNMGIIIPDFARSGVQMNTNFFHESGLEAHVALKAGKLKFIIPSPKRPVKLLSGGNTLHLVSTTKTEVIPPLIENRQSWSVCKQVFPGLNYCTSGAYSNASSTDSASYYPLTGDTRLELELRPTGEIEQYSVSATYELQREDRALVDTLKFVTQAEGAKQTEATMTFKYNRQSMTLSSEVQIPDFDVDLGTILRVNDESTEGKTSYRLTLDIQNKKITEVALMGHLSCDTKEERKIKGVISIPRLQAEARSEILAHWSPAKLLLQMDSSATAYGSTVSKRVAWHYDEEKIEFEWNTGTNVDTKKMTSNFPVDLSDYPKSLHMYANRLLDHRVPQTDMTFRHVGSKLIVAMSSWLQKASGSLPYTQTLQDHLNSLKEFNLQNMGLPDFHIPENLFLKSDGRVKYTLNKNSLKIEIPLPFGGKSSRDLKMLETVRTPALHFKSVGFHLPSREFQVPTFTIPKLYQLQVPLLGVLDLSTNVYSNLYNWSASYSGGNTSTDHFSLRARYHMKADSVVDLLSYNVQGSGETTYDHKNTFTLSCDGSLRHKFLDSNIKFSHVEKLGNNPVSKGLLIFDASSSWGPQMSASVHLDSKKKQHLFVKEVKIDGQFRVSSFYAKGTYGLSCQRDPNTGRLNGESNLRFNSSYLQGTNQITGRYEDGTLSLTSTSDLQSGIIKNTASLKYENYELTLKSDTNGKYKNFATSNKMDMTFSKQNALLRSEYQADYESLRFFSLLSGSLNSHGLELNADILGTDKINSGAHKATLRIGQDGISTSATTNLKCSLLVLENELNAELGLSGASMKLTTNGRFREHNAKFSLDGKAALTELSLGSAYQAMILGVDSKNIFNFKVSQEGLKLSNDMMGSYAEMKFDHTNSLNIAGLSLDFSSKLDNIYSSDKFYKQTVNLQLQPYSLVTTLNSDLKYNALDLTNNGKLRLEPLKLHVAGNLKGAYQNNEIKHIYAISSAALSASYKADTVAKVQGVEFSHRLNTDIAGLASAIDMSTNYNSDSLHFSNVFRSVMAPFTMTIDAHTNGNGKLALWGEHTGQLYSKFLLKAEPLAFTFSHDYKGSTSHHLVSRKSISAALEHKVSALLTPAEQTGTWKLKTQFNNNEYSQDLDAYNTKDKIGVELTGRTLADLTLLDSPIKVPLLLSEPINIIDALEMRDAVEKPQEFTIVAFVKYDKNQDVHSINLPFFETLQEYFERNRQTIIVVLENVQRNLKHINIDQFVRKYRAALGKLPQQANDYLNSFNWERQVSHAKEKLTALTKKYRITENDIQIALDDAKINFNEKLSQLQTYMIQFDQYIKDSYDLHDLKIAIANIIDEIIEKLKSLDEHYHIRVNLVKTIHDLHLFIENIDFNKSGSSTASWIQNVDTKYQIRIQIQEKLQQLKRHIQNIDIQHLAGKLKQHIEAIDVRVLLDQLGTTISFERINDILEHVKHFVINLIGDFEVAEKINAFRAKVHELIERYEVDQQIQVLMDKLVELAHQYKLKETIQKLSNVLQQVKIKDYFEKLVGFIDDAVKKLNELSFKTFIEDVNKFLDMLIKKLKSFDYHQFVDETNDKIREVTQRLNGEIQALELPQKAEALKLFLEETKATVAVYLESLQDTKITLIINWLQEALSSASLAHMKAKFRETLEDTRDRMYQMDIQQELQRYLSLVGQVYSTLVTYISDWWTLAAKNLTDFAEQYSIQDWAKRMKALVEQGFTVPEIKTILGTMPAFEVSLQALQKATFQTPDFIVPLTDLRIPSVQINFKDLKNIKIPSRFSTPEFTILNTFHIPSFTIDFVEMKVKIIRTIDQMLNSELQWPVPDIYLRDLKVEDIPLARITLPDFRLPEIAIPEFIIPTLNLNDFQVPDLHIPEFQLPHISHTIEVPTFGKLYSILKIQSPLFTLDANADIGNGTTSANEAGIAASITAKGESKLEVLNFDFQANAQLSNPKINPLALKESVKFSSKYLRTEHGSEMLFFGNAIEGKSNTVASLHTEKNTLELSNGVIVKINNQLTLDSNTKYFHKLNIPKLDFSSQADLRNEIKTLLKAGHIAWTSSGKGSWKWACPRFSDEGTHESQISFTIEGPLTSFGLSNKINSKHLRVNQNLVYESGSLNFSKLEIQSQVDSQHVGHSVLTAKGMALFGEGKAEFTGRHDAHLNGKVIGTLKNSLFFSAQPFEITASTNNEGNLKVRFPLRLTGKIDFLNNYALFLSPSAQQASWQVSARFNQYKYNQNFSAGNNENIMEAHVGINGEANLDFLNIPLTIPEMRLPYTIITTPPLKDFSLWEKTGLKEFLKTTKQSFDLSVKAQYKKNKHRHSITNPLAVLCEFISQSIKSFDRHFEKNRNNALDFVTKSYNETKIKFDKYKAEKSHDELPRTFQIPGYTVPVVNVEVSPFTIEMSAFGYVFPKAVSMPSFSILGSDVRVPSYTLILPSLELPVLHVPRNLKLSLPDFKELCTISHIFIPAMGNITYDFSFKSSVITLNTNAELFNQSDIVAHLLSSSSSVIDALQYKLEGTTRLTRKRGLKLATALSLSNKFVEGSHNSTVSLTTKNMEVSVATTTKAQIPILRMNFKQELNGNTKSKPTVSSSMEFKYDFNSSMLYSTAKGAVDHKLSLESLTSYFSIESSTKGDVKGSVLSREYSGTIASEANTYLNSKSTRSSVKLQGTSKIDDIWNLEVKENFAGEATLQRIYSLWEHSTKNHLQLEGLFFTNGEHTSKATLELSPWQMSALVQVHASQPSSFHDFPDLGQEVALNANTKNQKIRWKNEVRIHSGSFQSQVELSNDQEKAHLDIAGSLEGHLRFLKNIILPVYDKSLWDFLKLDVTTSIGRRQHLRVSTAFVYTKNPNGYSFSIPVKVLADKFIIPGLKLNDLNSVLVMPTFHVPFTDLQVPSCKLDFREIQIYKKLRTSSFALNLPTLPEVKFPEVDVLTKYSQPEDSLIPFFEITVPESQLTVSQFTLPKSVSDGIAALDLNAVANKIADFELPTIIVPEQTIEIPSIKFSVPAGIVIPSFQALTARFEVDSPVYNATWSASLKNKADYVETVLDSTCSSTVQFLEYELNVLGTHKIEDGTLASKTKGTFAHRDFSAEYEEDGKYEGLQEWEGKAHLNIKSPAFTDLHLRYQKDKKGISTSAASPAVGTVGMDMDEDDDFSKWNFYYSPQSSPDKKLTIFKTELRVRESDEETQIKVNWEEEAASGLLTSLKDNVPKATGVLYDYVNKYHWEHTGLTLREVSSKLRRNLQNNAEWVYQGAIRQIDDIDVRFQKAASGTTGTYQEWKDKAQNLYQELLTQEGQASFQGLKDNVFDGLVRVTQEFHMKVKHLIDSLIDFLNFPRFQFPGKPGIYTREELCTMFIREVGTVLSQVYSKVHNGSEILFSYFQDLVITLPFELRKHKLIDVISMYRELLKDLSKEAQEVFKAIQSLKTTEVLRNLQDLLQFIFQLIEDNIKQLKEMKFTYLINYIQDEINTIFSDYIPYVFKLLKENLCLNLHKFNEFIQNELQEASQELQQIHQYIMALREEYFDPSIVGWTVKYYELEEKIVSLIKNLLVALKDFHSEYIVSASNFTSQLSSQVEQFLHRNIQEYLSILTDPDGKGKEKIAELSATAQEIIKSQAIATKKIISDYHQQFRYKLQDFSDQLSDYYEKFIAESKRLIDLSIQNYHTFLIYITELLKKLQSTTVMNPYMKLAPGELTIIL
T3 sequence (peptide, as listed by the source limits assumed): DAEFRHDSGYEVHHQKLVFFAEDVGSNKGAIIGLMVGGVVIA

Binder	binding result [1]	binding result [2]	binding result [3]	binding result [4]
B1	no binding	binds	binds	
B2				no binding
